From paper doi:10.1101/2021.08.18.456755

What was measured:
[1] = molecular target: (His)6-tagged Hs-Ubc9 (human) (UniProt P63279); experiment: pull-down
[2] = molecular target: Pf-Ubc9 (Plasmodium falciparum E2 conjugating enzyme), untagged (Plasmodium falciparum); experiment: ITC
[3] = molecular target: Hs-Ubc9 (human E2 conjugating enzyme Ubc9), untagged (human) (UniProt P63279)
[4] = molecular target: (His)6-tagged Pf-Ubc9 (Plasmodium falciparum); experiment: pull-down
[5] = molecular target: Hs-Ubc9 (human E2 conjugating enzyme Ubc9), untagged (human) (UniProt P63279); experiment: ITC
[6] = molecular target: Pf-SUMO D90A mutant, untagged (ITC, SPR, NMR) (Plasmodium falciparum); experiment: SPR

Q: “Pf-SUMO D68K mutant (pull-down preparation) (natural protein)” was tested. Which reduction of binding against Pf-SUMO wild type (quantified pull-down) [1] did it give?
A: 90%

Q: For “Pf-SUMO D68A mutant (pull-down preparation) (natural protein)”, which reduction of binding against Pf-SUMO wild type (quantified pull-down) [1] is on record?
A: 90%

Q: What does the source list for “Pf-SUMO D90A mutant, untagged (ITC, SPR, NMR) (natural protein)”?
A: Kd [2]: 2.5 µM; fold change of the dissociation constant against the wild type [3]: 4 fold

Q: For “Pf-SUMO wild type as prepared for pull-down and SUMOylation assays (GST-tagged preparation) (natural protein)”, which relative affinity (quantified pull-down) [1] is on record?
A: 67%

Q: “Pf-SUMO D90A mutant (pull-down preparation) (natural protein)” was tested. Which reduction of binding against Pf-SUMO wild type (quantified pull-down) [1] did it give?
A: 90%

Q: For “Pf-SUMO D90K mutant (pull-down preparation) (natural protein)”, which reduction of binding against Pf-SUMO wild type (quantified pull-down) [1] is on record?
A: 90%

Q: “Hs-SUMO1 as prepared for pull-down and SUMOylation assays (GST-tagged preparation) (from UniProt P63165 1-97) (natural protein)” was tested. Which relative binding affinity (quantified pull-down) [4] did it give?
A: 12%

Q: How did the Kd [2] turn out when “Pf-SUMO (Plasmodium falciparum SUMO, mature form Pf-SUMO-GG), untagged (natural protein)” was run?
A: 4.05 µM

Q: And the Kd [5]?
A: 27.4 µM

Q: With “Pf-Ubc9 (Plasmodium falciparum E2 conjugating enzyme), untagged” as the substance, how does the Kd [6] read?
A: 3.02 µM
